B1: Elongation factor 1 alpha-like protein (Schizosaccharomyces pombe (strain ATCC 38366 / 972)), O74774 (parent)
chain: MSRHRDVKNLDLDDYELDEEPGEEELTEEQEEEFRSAVATVRETLLGVPISEKEIADTVWYYYFDVEKSVNYLLQKASSKAGAKEKQNTDSQKEKKQNKSKEALADAKDPLDESSNGIKNLSLNKNDEPAFQTNGEVKMKNSSESDNQPEKKKIKKQNPTDLVSVPEIFEQSNPKPVVHLVVTGHVDSGKSTMLGRIMFELGEINSRSMQKLHNEAANSGKGSFSYAWLLDTTEEERARGVTMDVASTTFESDKKIYEIGDAPGHRDFISGMIAGASSADFAVLVVDSSQNNFERGFLENGQTREHAYLLRALGISEIVVSVNKLDLMSWSEDRFQEIKNIVSDFLIKMVGFKTSNVHFVPISAISGTNLIQKDSSDLYKWYKGPTLLSALDQLVPPEKPYRKPLRLSIDDVYRSPRSVTVTGRVEAGNVQVNQVLYDVSSQEDAYVKNVIRNSDPSSTWAVAGDTVTLQLADIEVNQLRPGDILSNYENPVRRVRSFVAEIQTFDIHGPILSGSTLVLHLGRTVTSVSLKIVTVNNKRSRHIASRKRALVRISFLDGLFPLCLAEECPALGRFILRRSGDTVAAGIVKELC
partner: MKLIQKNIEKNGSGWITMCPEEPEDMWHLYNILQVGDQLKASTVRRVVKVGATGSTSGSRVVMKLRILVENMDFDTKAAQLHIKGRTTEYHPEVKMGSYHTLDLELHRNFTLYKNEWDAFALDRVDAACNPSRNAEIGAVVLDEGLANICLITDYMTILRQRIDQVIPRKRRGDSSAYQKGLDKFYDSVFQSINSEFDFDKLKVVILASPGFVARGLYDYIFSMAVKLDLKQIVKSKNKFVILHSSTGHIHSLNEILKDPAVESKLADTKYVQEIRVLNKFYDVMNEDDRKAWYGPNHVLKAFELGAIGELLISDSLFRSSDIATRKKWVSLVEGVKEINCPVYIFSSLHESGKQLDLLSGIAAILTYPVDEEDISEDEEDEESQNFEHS
B2: Protein dom34 (Schizosaccharomyces pombe (strain ATCC 38366 / 972)), Q9USL5 (parent)
chain: B1 partner
partner: B1 chain

The values below come from IntAct's records for PubMed 20890290.

Variants of B1 are the subject of the first experiment. The conditions noted are these: with dom34_schpo dom34, Q9USL5.
D557A: the “effect of a mutation on the interaction” value is “decreasing interaction”. As to D411A, the “effect of a mutation on the interaction” value is on record as “decreasing interaction”. The same measure, in the same setting: then R541A, with “decreasing interaction”; and R523A, with “decreasing interaction”; and R480A, with “decreasing interaction”. In the case of K531A, the “effect of a mutation on the interaction” value was “decreasing interaction”.

Variants of B2 are the subject of the next experiment. The conditions noted are these: with hbs1_schpo hbs1, O74774.
As for D164A, the “effect of a mutation on the interaction” value is given as “decreasing interaction”. For the variant R162A, the “effect of a mutation on the interaction” value is on record as “decreasing interaction”.
